Results reported in paper PMC10030352.

Target: human NCC_(cryo1) (human) (UniProt P55017)
Test: cryo-EM structure

stoichiometry N: 2
Substance: human NCC_(cryo1) (from UniProt P55017 1-1021) (natural protein)
